Results as given in patent US20260062455A1 (INSTITUT PASTEUR, published 2026).

Columns and labels:
[1] = molecular target: T1, MFSD2ACO expressed in HEK-293T.17 cells (LPC-analog transport assay) (human, UniProt Q8NA29 1-543); experiment: cell-based or functional assay
T1 chain: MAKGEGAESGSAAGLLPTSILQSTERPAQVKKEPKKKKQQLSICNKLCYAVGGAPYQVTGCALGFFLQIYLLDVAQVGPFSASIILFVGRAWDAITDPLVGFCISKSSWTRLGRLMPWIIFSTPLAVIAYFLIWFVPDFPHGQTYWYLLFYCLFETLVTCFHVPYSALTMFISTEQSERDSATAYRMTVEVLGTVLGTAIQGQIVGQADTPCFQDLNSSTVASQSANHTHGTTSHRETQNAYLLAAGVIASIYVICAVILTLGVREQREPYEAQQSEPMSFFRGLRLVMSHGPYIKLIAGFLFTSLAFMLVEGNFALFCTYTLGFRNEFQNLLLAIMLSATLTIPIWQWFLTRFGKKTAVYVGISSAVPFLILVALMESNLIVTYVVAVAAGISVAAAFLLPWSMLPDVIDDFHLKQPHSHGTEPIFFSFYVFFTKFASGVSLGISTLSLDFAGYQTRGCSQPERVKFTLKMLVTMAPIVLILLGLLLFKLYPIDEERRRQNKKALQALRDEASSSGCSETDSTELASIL

[2] = molecular target: T2, GFP-MFSD2ACO (N-terminal FLAG-tag/GFP fusion of MFSD2ACO, detergent-solubilised lysate) (human, UniProt Q8NA29 1-543); experiment: titration of SYNC2-mCherry lysate onto GFP-MFSD2A captured on anti-FLAG resin in DDM/CHS at 4 °C; eluted mCherry/GFP fluorescence fitted to a quadratic binding equation
T2 construct: The methods say only 'MFSD2A'; also called MFSD2A-GFP; not shown: N-terminal FLAG-tag, GFP and PreScission protease cleavage site
T2 chain: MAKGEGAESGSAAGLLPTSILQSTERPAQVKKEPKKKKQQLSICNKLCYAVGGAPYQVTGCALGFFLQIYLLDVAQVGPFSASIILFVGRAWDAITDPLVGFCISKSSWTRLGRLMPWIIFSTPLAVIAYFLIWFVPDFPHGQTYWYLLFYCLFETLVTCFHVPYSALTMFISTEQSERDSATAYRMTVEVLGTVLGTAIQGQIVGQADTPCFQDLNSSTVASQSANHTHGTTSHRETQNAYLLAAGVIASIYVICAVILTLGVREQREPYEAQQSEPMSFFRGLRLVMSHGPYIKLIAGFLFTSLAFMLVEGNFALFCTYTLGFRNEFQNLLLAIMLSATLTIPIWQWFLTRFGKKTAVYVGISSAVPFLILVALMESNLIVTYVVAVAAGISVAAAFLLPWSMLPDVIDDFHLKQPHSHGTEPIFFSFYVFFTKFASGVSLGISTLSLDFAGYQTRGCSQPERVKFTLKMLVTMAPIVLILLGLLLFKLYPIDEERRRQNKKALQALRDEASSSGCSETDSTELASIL
Procedure: SYNC2 binding to MFSD2A was assayed in clear lysates of detergent-solubilized HEK-293F cells expressing mCherry (C-terminal) and GFP (N-terminal) fusion constructs of SYNC2 and MFSD2A, respectively, that enable protein quantification. Clear cells lysates were obtained by 1-hour solubilization in lysis buffer containing 50 mM HEPES pH 7.4, 200 mM NaCl, 5% v/v glycerol, 1 mM EDTA, protease-inhibitor cocktail, 1% DDM, and 0.2% CHS, followed by centrifugation (3,800g, 20 min). SYNC2-mCherry and GFP-MFSD2A protein concentrations in lysates were determined using purified standards in a micro-plate reader (CLARIOstar-Plus) set at 570/620 and 470/514 (λexcitation/λemission), respectively. MFSD2A-GFP lysate at 500 nM was incubated with 2 ml anti-FLAG M2 resin for 1 hour, fractionated in 8 equal parts placed on gravity columns and washed with 1 ml of wash buffer (50 mM HEPES pH 7.4, 200 mM NaCl, 5% (v/v) glycerol, 0.03% DDM, and 0.006% CHS). SYNC2-mCherry was added from a calibrated stock at 2 μM, and equilibrated for 1 hour. […] Eluted protein was transferred to a 96-well flat-bottom black plate for quantification of GFP and mCherry fluorescence. SYNC-mCherry fluorescence background was determined from samples with anti-FLAG resin that lack MFSD2A-GFP bound. SYNC2-mCherry subtracted fluorescence was fitted to a quadratic binding equation using Sigma Plot (Systat).

[3] = molecular target: T3, MFSD2ACO (thermostable consensus MFSD2A mutant), purified in detergent (human, UniProt Q8NA29 1-543); experiment: cryo-EM 2D classes and 3D reconstructions of the purified complex; 3.6 Å map of SYNC2SU-CO bound to MFSD2ACO
T3 construct: Full-length transporter expressed in HEK-293F with an N-terminal FLAG-tag, GFP and PreScission site; also called MFSD2A consensus; MFSD2A consensus design
T3 chain: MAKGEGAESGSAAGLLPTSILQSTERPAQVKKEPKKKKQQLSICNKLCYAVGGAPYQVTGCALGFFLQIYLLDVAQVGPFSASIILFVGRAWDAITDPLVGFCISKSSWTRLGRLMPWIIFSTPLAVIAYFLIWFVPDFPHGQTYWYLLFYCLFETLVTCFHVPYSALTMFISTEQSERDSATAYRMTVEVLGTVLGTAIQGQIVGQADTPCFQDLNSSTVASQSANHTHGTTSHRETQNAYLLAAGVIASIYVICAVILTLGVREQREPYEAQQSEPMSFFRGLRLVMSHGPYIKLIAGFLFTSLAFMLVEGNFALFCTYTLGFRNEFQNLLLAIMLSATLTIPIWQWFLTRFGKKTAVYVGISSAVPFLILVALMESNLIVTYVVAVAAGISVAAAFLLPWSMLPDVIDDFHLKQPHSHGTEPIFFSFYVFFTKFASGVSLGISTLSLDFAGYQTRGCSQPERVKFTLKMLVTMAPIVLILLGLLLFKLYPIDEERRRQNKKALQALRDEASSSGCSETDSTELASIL
Description: For cryo-EM structural determination of MFSD2ACO-SYNC2CO complex, the inventors used SYNC2CO-C43S (SYNC2_CO-C43S) mutant to avoid detachment of surface and transmembrane subunits upon binding to MFSD2ACO. […] However, high flexibility within the complex precluded high-resolution 3D reconstructions. To overcome this problem, the inventors used a smaller box size in order to extract individual components, effectively increasing particle number and sample homogeneity, as it was recently shown in cryo-EM structure determination of human CD20 bound to divalent Fab fragments (Kumar et al., 2020). This approach enabled particle averaging over the three MFSD2ACO molecules in the complex, yielding a cryo-EM map at an overall 3.6 Å resolution of SYNC2_SU-CO bound to MFSD2ACO (FIG. 1F; Table 1; FIG. 7, 8). […] Trimeric SYNC2TM in the post-fusion state was not resolved in 3D cryo-EM reconstructions, likely due to lower number of particles, as well as alignment problems of micelles containing only three flexible transmembrane helices.
MFSD2ACO-SYNC2_CO-C43S purified complex was applied to glow-discharged Au 200 mesh Quantifoil R1.2/1.3 holey carbon grids (Quantifoil), and vitrified using Vitrobot Mark IV (ThermoFisher). Typically, 4 μl of sample at 1.2-1.5 mg/ml were applied to the grids, and the Vitrobot chamber was maintained at 100% humidity and 4° C. […]

B1: SYNC2SU-CO (soluble thermostable consensus SYNC2 fragment with C43S), purified, C-terminal EPEA-tag (ligand)
chain: AYRHPDFPLLEKAQQLLQSTGSPYSTNSWLCTSSSTETPGTAYPASPREWTSIEAELHISYRWDPNLKGLMRPANSLLSTVKQDFPDIRQKPPIFGPIFTNINLMGIAPICVTAKRKNGTNVGTLPSTVCNVTFTVDPNQQTYQTYTHNQFRHQPRFPKPPNITFPQGTLLDKSTRFCQGRPSSCSTRNFWFRPADYNQCLQISNLSSTAEWVLLDQTRNSLFWENKTKGANQSQTPCVQVLAGMTIATSYLGISAVSEFFGTSLTPLFHFHISTCLKTQGAFYICGQSIHQCLPSNWTGTCTIGYVTPDIFIAPEPEA
half-maximal inhibitory concentration (IC50) of Na+-dependent LPCNBD transport in cells [1]: ~200 nM

B2: SYNC2CO-C43S-mCherry (C-terminal mCherry fusion, detergent-solubilised lysate) (ligand)
chain: AYRHPDFPLLEKAQQLLQSTGSPYSTNSWLCTSSSTETPGTAYPASPREWTSIEAELHISYRWDPNLKGLMRPANSLLSTVKQDFPDIRQKPPIFGPIFTNINLMGIAPICVTAKRKNGTNVGTLPSTVCNVTFTVDPNQQTYQTYTHNQFRHQPRFPKPPNITFPQGTLLDKSTRFCQGRPSSCSTRNFWFRPADYNQCLQISNLSSTAEWVLLDQTRNSLFWENKTKGANQSQTPCVQVLAGMTIATSYLGISAVSEFFGTSLTPLFHFHISTCLKTQGAFYICGQSIHQCLPSNWTGTCTIGYVTPDIFIAPGNLSLPIPIYGNSPLPRVRRAIHFIPLLAGLGILAGTGTGIAGITKASLTYSQLSKEIANNIDTMAKALTTMQEQIDSLAAVVLQNRRGLDMLTAAQGGICLALDEKCCFWVNQSGKVQDNIRQLLNQASSLRERATQGWLNWEGTWKWFSWVLPFIGPLVSLLLLLLFGPCLLNLITQFVSSRLQAIKLQTNLSAGRHPRNIQESPF
notes: The methods say only 'SYNC2'; also called SYNC2-mCherry; SYNC-mCherry; not shown: C-terminal mCherry
Kd [2]: ~100 nM

B3: SYNC2CO-C43S (thermostable consensus SYNC2 mutant with additional mutation C43S), purified in detergent (ligand)
chain: AYRHPDFPLLEKAQQLLQSTGSPYSTNSWLCTSSSTETPGTAYPASPREWTSIEAELHISYRWDPNLKGLMRPANSLLSTVKQDFPDIRQKPPIFGPIFTNINLMGIAPICVTAKRKNGTNVGTLPSTVCNVTFTVDPNQQTYQTYTHNQFRHQPRFPKPPNITFPQGTLLDKSTRFCQGRPSSCSTRNFWFRPADYNQCLQISNLSSTAEWVLLDQTRNSLFWENKTKGANQSQTPCVQVLAGMTIATSYLGISAVSEFFGTSLTPLFHFHISTCLKTQGAFYICGQSIHQCLPSNWTGTCTIGYVTPDIFIAPGNLSLPIPIYGNSPLPRVRRAIHFIPLLAGLGILAGTGTGIAGITKASLTYSQLSKEIANNIDTMAKALTTMQEQIDSLAAVVLQNRRGLDMLTAAQGGICLALDEKCCFWVNQSGKVQDNIRQLLNQASSLRERATQGWLNWEGTWKWFSWVLPFIGPLVSLLLLLLFGPCLLNLITQFVSSRLQAIKLQTNLSAGRHPRNIQESPF
modifications: N-glycans at N133, N146, N177, N220, N241, N247 and N312 (all seven predicted sites carry glycans in the structure)
notes: Trimeric full-length envelope protein; also called SYNC2 consensus C43S; SYNC2SU-CO (its surface subunit as resolved in the cryo-EM map)
binding result [3]: binds
